Here are results for four molecules from patent US20200247894A1 (Regeneron, published 2020).

For experiment [1], the target named is T1, D1 domain of human IL-2Rγ extracellular domain expressed with a C-terminal myc-myc-hexahistidine tag (human).
T1 construct: also called human IL2Rγ domain 1
T1 chain: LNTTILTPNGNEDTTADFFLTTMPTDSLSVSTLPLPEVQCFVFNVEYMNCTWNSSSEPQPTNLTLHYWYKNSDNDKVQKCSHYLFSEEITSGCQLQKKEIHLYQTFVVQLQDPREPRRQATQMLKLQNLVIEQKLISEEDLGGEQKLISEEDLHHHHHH
The experiment is described as follows: SPR, mAb captured on anti-hFc, 25 C. Put shortly: (§1)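 KD and dissociative half-life come from rate constants obtained by 1:1 binding-model fits of real-time sensorgrams. Antibodies sit on an anti-human Fc capture surface, with HBS-ET (pH 7.4) as running buffer and an 8-10 minute dissociation phase.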
On the technique in general: SPR reads the build-up and loss of mass on a sensor chip optically.

Experiment [2] has as its target T2, D2 domain of human IL2Rγ extracellular domain expressed with a C-terminal myc-myc-hexahistidine tag (human).
T2 construct: also called human IL2Rγ domain 2
T2 chain: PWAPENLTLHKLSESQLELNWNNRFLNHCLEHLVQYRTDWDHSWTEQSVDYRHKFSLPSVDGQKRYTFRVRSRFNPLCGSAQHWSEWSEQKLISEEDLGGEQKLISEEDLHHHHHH
The experiment is described as follows: SPR, mAb captured on anti-hFc, 25 C; 25 C. How it is done: (§2) Equilibrium dissociation constants (KD values) for IL-2Rγ binding to purified anti-IL2Rγ monoclonal antibodies were determined using a Biacore 4000 instrument equipped with a real-time surface plasmon resonance biosensor. All binding studies were performed in 10 mM HEPES, 150 mM NaCl, 3 mM EDTA, and 0.05% v/v Surfactant Tween-20, pH 7.4 (HBS-ET) running buffer at 25° C. and 37° C. The Biacore sensor surface was first derivatized by amine coupling with a monoclonal mouse anti-human Fc antibody (GE, # BR-1008-39) to capture anti-IL2Rγ monoclonal antibodies.

The target of experiment [3] is T1, D1 domain of human IL-2Rγ extracellular …. The experiment is described as follows: SPR, mAb captured on anti-hFc, 37 C. The method in brief: as §1
For experiment [4], the target named is T3, human IL2Rγ (endogenously expressed on cells) (human, UniProt P31785 23-369).
T3 sequence (looked up): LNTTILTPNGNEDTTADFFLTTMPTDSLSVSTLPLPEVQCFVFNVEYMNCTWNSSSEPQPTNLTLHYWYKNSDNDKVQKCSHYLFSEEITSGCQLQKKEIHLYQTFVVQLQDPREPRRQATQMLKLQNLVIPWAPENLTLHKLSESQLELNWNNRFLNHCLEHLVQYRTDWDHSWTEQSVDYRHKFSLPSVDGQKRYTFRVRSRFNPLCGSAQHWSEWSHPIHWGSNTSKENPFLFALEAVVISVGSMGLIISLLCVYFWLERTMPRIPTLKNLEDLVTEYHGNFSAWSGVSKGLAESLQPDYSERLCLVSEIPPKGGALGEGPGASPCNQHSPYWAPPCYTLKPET
The experiment is described as follows: cell-based or functional assay.

Experiment [5] concerns the target T4, Macaca fascicularis IL2Rγ extracellular domain expressed with a C-terminal myc-myc-hexahistidine tag (Macaca fascicularis).
T4 construct: also called mfIL-2Rg-MMH; mfIL-2RG-MMH
T4 chain: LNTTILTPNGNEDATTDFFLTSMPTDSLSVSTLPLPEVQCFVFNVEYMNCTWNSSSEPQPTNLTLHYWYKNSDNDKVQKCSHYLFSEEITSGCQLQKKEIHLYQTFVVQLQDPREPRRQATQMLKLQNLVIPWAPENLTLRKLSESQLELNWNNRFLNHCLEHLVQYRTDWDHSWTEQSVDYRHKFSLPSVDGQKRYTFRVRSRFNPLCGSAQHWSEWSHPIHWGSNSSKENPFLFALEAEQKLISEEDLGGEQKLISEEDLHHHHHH
The experiment is described as follows: SPR Biacore 4000, mAb captured by anti-hFc, 37C, dissociation in PBS-T pH 6.0. The method in brief:
(§3)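 Biacore 4000 SPR; anti-IL2Rγ mAbs (human IgG4 Fc) captured on anti-human Fc CM5 surface, IL2Rγ-MMH flowed over. Dissociation followed 6 min in PBS-T pH 7.4 or pH 6.0 at 25° C or 37° C; kd from 1:1 model fit of sensorgrams.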

The target in experiment [6] is T4, Macaca fascicularis IL2Rγ extracellular …. The experiment is described as follows: SPR Biacore 4000, mAb captured by anti-hFc, 37C, dissociation in PBS-T pH 7.4. The method in brief: as §3
The target of experiment [7] is T5, Human IL2Rγ extracellular domain expressed with a C-terminal myc-myc-hexahistidine tag (human).
T5 construct: also called hIL-2Rg-MMH; hIL-2RG-MMH
T5 chain: T4 chain with A14T, T16A, S22T, R141H, S228T
The experiment is described as follows: SPR Biacore 4000, mAb captured by anti-hFc, HBS-ET, 25C; 25 C. How it is done:
as §2
The dissociation of monoclonal antibody bound IL2Rγ reagents were monitored for 8-10 minutes in HBS-ET running buffer. Kinetic association (kₐ) and dissociation (kd) rate constants were determined by fitting the real-time sensorgrams to a 1:1 binding model using Scrubber 2.0c curve fitting software. Binding dissociation equilibrium constants (KD) and dissociative half-lives (t_{1/2}) were calculated from the kinetic rate constants as: […]

The target of experiment [8] is T4, Macaca fascicularis IL2Rγ extracellular …. The experiment is described as follows: SPR Biacore 4000, mAb captured by anti-hFc, HBS-ET, 25C. Put shortly: as §1

Where a chain is given by its changes, count along the chain named. Bounds are passed on as bounds.

B1: H4H12874P (antibody, human IgG4 S228P, kappa, V domains shown)
VH: QVQLVESGGGVVQPGRSLRLSCAASGFNFRNFGMHWVRQAPGKGLEWVAGILYDGSSKYYADSVKDRFTISRDNSKNTLFLQMNSLRAEDTAMYYCAKEEDTAMVPFDSWGPGTLVTVSS
VL: DIQLTQSPSFLSASVGDRVTITCWASQGISSYLAWYQQKPGKAPTLLIYAASTLQSGVPSRFSGSGSGTEFTLTISSLQPEDFASYYCQQLKSYPLTFGGGTKVEIKR
notes: human IgG4
Take B1: in experiment [1], the “100 nM Ag Bound” value worked out at 0 RU. In experiment [2], this molecule gave a Kd of 214 nM, a koff of 0.0435 s⁻¹, an on-rate constant (kon) of 203000 M⁻¹ s⁻¹ and a t½ of 18 s. Moreover, in experiment [3], the “100 nM Ag Bound” value worked out at 1 RU and the binding result is “no binding (tested: 100 nM)”. Besides, in experiment [4], the “IC50; IL-4 250 pM; Ramos.2G6.4C10/STAT3-luc” value was greater than 1e-07 M, the “IC50; IL-7 50 pM; NK92/hIL7R/STAT3-luc” value worked out at 4.1e-08 M, the “IC50; IL-9 20 pM; NK92/hIL7R/STAT3-luc” value is greater than 1e-07 M and the “IC50; IL-15 60 pM; NK92/hIL7R/STAT3-luc” value was greater than 1e-07 M. Further, in experiment [4], the “Max Inhibition (%); IL-2 30 pM; NK92/hIL7R/STAT3-luc” value turned out to be 26%, the “Max Inhibition (%); IL-4 250 pM; Ramos.2G6.4C10/STAT3-luc” value stood at 70%, the “Max Inhibition (%); IL-7 50 pM; NK92/hIL7R/STAT3-luc” value was found to be 93% and the “Max Inhibition (%); IL-9 20 pM; NK92/hIL7R/STAT3-luc” value is 50%. Moreover, the “Max Inhibition (%); IL-15 60 pM; NK92/hIL7R/STAT3-luc” value in experiment [4] stood at 55%.

B2: H4H12927P2 (antibody, human IgG4 S228P, kappa, V domains shown)
VH: EVQLVESGGGVVRPGGSLRLSCATSGFTFDDYGMSWVRQVPGKGLEWVSSVNRNGGTTDYADSVKGRFTISRDNAKRSLFLQMNSLRAEDTALYHCATGELFFDYWGQGTLVTVSS
VL: not shown
notes: human IgG4
As for B2, in experiment [1], the “100 nM Ag Bound” value came to 0 RU and the binding result was “no binding (tested: 100 nM)”. Moreover, in experiment [2], binding was characterised by a dissociation constant (Kd) of 69.9 nM, the koff was found to be 0.0166 s⁻¹, the kon stood at 238000 M⁻¹ s⁻¹ and the t½ came out at 42 s. Further, the “100 nM Ag Bound” value in experiment [3] is 1 RU. In addition, in experiment [4], the “IC50; IL-7 50 pM; NK92/hIL7R/STAT3-luc” value is greater than 1e-07 M, the “Max Inhibition (%); IL-2 30 pM; NK92/hIL7R/STAT3-luc” value is 18%, the “Max Inhibition (%); IL-4 250 pM; Ramos.2G6.4C10/STAT3-luc” value turned out to be 33% and the “Max Inhibition (%); IL-7 50 pM; NK92/hIL7R/STAT3-luc” value was found to be 46%. In addition, in experiment [4], the “Max Inhibition (%); IL-15 60 pM; NK92/hIL7R/STAT3-luc” value turned out to be 34%.

B3: H4H12927P2 (antibody, human IgG4 S228P, kappa, V domains shown)
VH: B2 VH
VL: not shown
notes: anti-IL2Rγ monoclonal antibody expressed with human IgG4 Fc
Turning to B3, in experiment [5], the “100 nM Ag Bound (RU)” value turned out to be 22 RU, the koff was 0.0129 s⁻¹ and the t1/2 is 54 s. Besides, in experiment [6], the “100 nM Ag Bound (RU)” value worked out at 27 RU, the koff was determined as 0.00596 s⁻¹ and the t1/2 amounted to 114 s. In experiment [7], this molecule came in with a Kd of 96.5 nM, a koff of 0.00555 s⁻¹, an on-rate (kon) of 57500 M⁻¹ s⁻¹ and a t1/2 of 126 s. In experiment [8], the “100 nM Ag Bound” value was determined as 12 RU, the Kd turned out to be 238 nM, the koff was found to be 0.00686 s⁻¹ and the kon was found to be 28800 M⁻¹ s⁻¹. The molecule also yielded a t1/2 in experiment [8] of 102 s.

B4: H4H12926P2 (antibody, human IgG4 S228P, kappa, V domains shown)
VH: QVQLQQSGPGLVKPSQTLSLTCAISGDSVSSNIAAWNWIRLSPSRGLEWLGRTFFRSTWFYDYSLSVKGRITINPDTSKNQFSLHLNSVTPEDAAVYYCARTGRRWSLDYWGQGTLVTVSS
VL: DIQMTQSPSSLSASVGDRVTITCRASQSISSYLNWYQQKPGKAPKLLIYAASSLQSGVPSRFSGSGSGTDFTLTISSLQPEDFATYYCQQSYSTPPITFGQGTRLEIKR
notes: as for B3
Regarding B4, in experiment [5], the “100 nM Ag Bound (RU)” value was found to be 20 RU, the koff was 0.0303 s⁻¹ and the t1/2 was 24 s. In addition, in experiment [6], the “100 nM Ag Bound (RU)” value came out at 25 RU, the koff was determined as 0.0279 s⁻¹ and the t1/2 came to 24 s. In addition, in experiment [7], the Kd amounted to 132 nM, the koff is 0.0264 s⁻¹, the association rate constant (kon) came out at 200000 M⁻¹ s⁻¹ and the t1/2 was determined as 24 s. Also, in experiment [8], the “100 nM Ag Bound” value amounted to 11 RU, binding was put at a Kd of 107 nM, the koff came to 0.0261 s⁻¹ and the kon was 244000 M⁻¹ s⁻¹. The t1/2 in experiment [8] was 24 s.

For orientation: Kd means the equilibrium constant for the complex coming apart. The koff is the first-order rate constant of dissociation. What is called kon is a measure of how fast the partners come together. A higher kon goes with faster complex formation. As usually defined, the t½ is the time in which the quantity being followed falls by half. A higher t½ goes with slow loss.
